Numbering of substitutions follows the chain as printed. Names may count otherwise. “And” between values parts separate entries of the source, which are not always exact repeats. Equal entries are not always repeated.

The source of these data is US20230365662A1.

Assay [1] deals with HRgpA-6H (Porphyromonas gingivalis) (UniProt P28784). In words: ELISA, FASEBA Fab on coated HRgpA-6H. On the technique in general: In an ELISA, binding on a coated surface is turned into a signal by an enzyme label.
Assay [2] shares this target. Kind of assay: ELISA on coated HRgpA-6H.

B1: KB001 mouse Fab VL S53V (Fab, V domains shown)
VH: EVQLKQSGPGLVAPSQSLSITCTVSGFSLSIYSVHWVRQPPGKGLEWLGMIWGGGSSDYNSALKSRLSISKDNSKSQVFLKMNSLQTDDTAMYYCARNGNFYAMDYWGQGTSVTVSS
VL: QIVLTQSPAIMSASLGERVTMTCTASSSVSSSFLHWYQQKPGSSPQLWIYSTVNLASGVPARFSGSGSGTSYSLTISSMEAEDAATYYCHQYHHSPYIYTFGGGTKLEIK
With B1, in assay [1], the OD450nm was found to be 0.702 and the Ratio OD(Variant)/OD(WT) turned out to be 0.891.

B2: KB001 mouse Fab FASEBA VH S30A (Fab, V domains shown)
VH: B1 VH with S30A
VL: B1 VL with V53S
B2: in assay [2], the OD450nm was 0.534 and 0.499 and 0.494; the Ratio OD(Variant)/OD(WT) is 1.06 and 0.989 and 0.979.

B3: KB001 mouse Fab VL N54L (Fab, V domains shown)
VH: B1 VH
VL: B1 VL with V53S, N54L
As to B3, in assay [1], the OD450nm is 0.774 and the Ratio OD(Variant)/OD(WT) turned out to be 0.988.

B4: KB001 mouse Fab FASEBA VH S30G (Fab, V domains shown)
VH: B1 VH with S30G
VL: B1 VL with V53S
For the molecule B4, in assay [2], the OD450nm was 0.533 and 0.515; the Ratio OD(Variant)/OD(WT) was 1.06 and 1.02.

B5: KB001 mouse Fab VL N54I (Fab, V domains shown)
VH: B1 VH
VL: B1 VL with V53S, N54I
As for B5, in assay [1], the OD450nm was 0.755 and 0.772 and 0.754; the Ratio OD(Variant)/OD(WT) was 0.964 and 0.985 and 0.962.

B6: KB001 mouse Fab VL L55H (Fab, V domains shown)
VH: B1 VH
VL: B1 VL with V53S, L55H
Take B6: in assay [1], the OD450nm was 0.695 and 0.731; the Ratio OD(Variant)/OD(WT) was 0.887 and 0.933.

B7: KB001 mouse Fab FASEBA VH S30N (Fab, V domains shown)
VH: B1 VH with S30N
VL: B1 VL with V53S
Take B7: in assay [2], the OD450nm is 0.565 and 0.56; the Ratio OD(Variant)/OD(WT) is 1.12 and 1.11.

B8: KB001 mouse Fab VL T100K (Fab, V domains shown)
VH: B1 VH
VL: B1 VL with V53S, T100K
For B8, in assay [1], the OD450nm was found to be 0.625 and the Ratio OD(Variant)/OD(WT) came out at 1.19.

B9: KB001 mouse Fab FASEBA VH S61D (Fab, V domains shown)
VH: B1 VH with S61D
VL: B1 VL with V53S
For the molecule B9, the Ratio OD(Variant)/OD(WT) in assay [2] was 1.14 and 1.11 (2×) and 0.956.

B10: KB001 mouse Fab FASEBA VH S61Q (Fab, V domains shown)
VH: B1 VH with S61Q
VL: B1 VL with V53S
Consider B10, for which, in assay [2], the OD450nm is 0.634 and the Ratio OD(Variant)/OD(WT) turned out to be 1.28.

B11: KB001 mouse Fab VL N54F (Fab, V domains shown)
VH: B1 VH
VL: B1 VL with V53S, N54F
In the case of B11, in assay [1], the OD450nm was 0.765 and the Ratio OD(Variant)/OD(WT) stood at 0.976.

B12: KB001 mouse Fab FASEBA VH I31T (Fab, V domains shown)
VH: B1 VH with I31T
VL: B1 VL with V53S
Turning to B12, in assay [2], the OD450nm was 0.56 and 0.534; the Ratio OD(Variant)/OD(WT) was 1.11 and 1.06.

B13: KB001 mouse Fab FASEBA VH S28P (Fab, V domains shown)
VH: B1 VH with S28P
VL: B1 VL with V53S
With B13, in assay [2], the OD450nm was 0.545 and 0.452 and 0.514; the Ratio OD(Variant)/OD(WT) is 1.01 and 0.837 and 0.952.

B14: KB001 mouse Fab FASEBA VH S30E (Fab, V domains shown)
VH: B1 VH with S30E
VL: B1 VL with V53S
In the case of B14, in assay [2], the OD450nm was found to be 0.567 and the Ratio OD(Variant)/OD(WT) was found to be 1.12.

B15: KB001 mouse Fab VL L55Q (Fab, V domains shown)
VH: B1 VH
VL: B1 VL with V53S, L55Q
Turning to B15, in assay [1], the OD450nm is 0.711 and 0.692 and 0.684; the Ratio OD(Variant)/OD(WT) is 0.907 and 0.883 and 0.873.

B16: KB001 mouse Fab VL L55V (Fab, V domains shown)
VH: B1 VH
VL: B1 VL with V53S, L55V
For the molecule B16, in assay [1], the OD450nm came to 0.706 and the Ratio OD(Variant)/OD(WT) worked out at 0.901.

B17: KB001 mouse Fab VL L55S (Fab, V domains shown)
VH: B1 VH
VL: B1 VL with V53S, L55S
On to B17, for which, in assay [1], the OD450nm worked out at 0.672 and the Ratio OD(Variant)/OD(WT) was found to be 0.858.

B18: KB001 mouse Fab FASEBA VH S30Y (Fab, V domains shown)
VH: B1 VH with S30Y
VL: B1 VL with V53S
On to B18, for which, in assay [2], the OD450nm is 0.53 and 0.488; the Ratio OD(Variant)/OD(WT) is 1.05 and 0.967.

B19: KB001 mouse Fab VL N54D (Fab, V domains shown)
VH: B1 VH
VL: B1 VL with V53S, N54D
B19: in assay [1], the OD450nm is 0.725 and the Ratio OD(Variant)/OD(WT) came out at 0.925.

B20: KB001 mouse Fab VL N54K (Fab, V domains shown)
VH: B1 VH
VL: B1 VL with V53S, N54K
Take B20: in assay [1], the OD450nm was 0.727 and the Ratio OD(Variant)/OD(WT) worked out at 0.928.

B21: KB001 mouse Fab VL L55T (Fab, V domains shown)
VH: B1 VH
VL: B1 VL with V53S, L55T
As to B21, in assay [1], the OD450nm amounted to 0.727 and the Ratio OD(Variant)/OD(WT) was found to be 0.928.

B22: KB001 mouse Fab VL T100D (Fab, V domains shown)
VH: B1 VH
VL: B1 VL with V53S, T100D
Turning to B22, in assay [1], the OD450nm came to 0.645 and the Ratio OD(Variant)/OD(WT) is 1.23.

B23: KB001 mouse Fab FASEBA VH S28E (Fab, V domains shown)
VH: B1 VH with S28E
VL: B1 VL with V53S
With B23, in assay [2], the OD450nm was 0.561 and 0.551 and 0.494; the Ratio OD(Variant)/OD(WT) was 1.04 and 1.02 and 0.915.

B24: KB001 mouse Fab VL L55K (Fab, V domains shown)
VH: B1 VH
VL: B1 VL with V53S, L55K
For B24, in assay [1], the OD450nm was 0.769 and the Ratio OD(Variant)/OD(WT) was 0.981.

B25: KB001 mouse Fab VL N54A (Fab, V domains shown)
VH: B1 VH
VL: B1 VL with V53S, N54A
On to B25, for which, in assay [1], the OD450nm was determined as 0.776 and the Ratio OD(Variant)/OD(WT) was found to be 0.99.

B26: KB001 mouse Fab VL N54W (Fab, V domains shown)
VH: B1 VH
VL: B1 VL with V53S, N54W
With B26, in assay [1], the OD450nm was determined as 0.646 and the Ratio OD(Variant)/OD(WT) is 0.825.

B27: KB001 mouse Fab VL N54E (Fab, V domains shown)
VH: B1 VH
VL: B1 VL with V53S, N54E
Turning to B27, in assay [1], the OD450nm is 0.744 and 0.74; the Ratio OD(Variant)/OD(WT) is 0.95 and 0.944.
